Reference: EP4667489A1

Target: human PDL1 expressed on 293T-PDL1 cells (human) (UniProt Q9NZQ7)
Experiment: flow cytometry on 293T-PDL1 cells

Sequence of human PDL1 expressed on 293T-PDL1 cells (human) (Q9NZQ7 19-290): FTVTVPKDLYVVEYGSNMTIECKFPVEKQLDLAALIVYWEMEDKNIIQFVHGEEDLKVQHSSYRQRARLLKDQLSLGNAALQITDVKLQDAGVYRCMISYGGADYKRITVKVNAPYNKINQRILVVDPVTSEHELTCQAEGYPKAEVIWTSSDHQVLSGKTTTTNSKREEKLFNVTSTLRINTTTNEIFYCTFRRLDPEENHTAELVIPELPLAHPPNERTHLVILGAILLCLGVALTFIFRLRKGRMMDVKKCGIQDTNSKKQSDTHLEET

MFI.Max: 44.1
Substance: IgG1 irrelevant antibody
